Patent publication US7601489
Read-outs that look alike come from different tables or passages of the source.

Experiments:
[1] = target: T1, Ty1 reverse transcriptase (wild-type) (Saccharomyces cerevisiae Ty1 retrotransposon) (UniProt Q07163); details: 22 C, 20 mM KCl, pH 7.8
T1 sequence: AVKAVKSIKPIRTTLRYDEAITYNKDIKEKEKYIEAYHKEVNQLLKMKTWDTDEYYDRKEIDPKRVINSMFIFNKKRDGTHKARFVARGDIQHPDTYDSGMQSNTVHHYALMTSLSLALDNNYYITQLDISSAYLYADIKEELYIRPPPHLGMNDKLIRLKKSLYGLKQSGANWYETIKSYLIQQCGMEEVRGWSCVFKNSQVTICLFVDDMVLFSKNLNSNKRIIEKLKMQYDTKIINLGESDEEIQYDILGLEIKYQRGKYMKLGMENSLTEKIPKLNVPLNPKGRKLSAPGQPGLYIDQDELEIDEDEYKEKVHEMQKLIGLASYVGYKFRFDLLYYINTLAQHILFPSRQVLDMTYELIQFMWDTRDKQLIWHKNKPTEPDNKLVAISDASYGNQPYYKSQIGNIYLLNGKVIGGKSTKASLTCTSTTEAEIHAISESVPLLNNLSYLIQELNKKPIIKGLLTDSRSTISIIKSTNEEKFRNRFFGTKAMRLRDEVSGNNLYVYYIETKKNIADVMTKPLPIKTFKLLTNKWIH

[2] = target: T2, Ty1 reverse transcriptase D211N D211N (Saccharomyces cerevisiae Ty1 retrotransposon) (UniProt Q07163); details: 22 C, 20 mM KCl, pH 7.8
T2 sequence: T1 sequence

[3] = target: T3, Ty1 VLP-associated reverse transcriptase (Saccharomyces cerevisiae Ty1 retrotransposon) (UniProt Q07163); details: 100% incorporation with Mg2+; 22 C; 50% inhibition at Mn2+:Mg2+ ratio 8e-3
T3 sequence: T1 sequence

[4] = target: HIV-1 reverse transcriptase (heterodimer) (HIV-1) (UniProt P04585+P04585); details: 100% incorporation with Mg2+; 37 C; 50% inhibition at Mn2+:Mg2+ ratio 7e-4

Work on oligo(dG)12-18/poly(rC) primer-template yielded an activity ([1]; kcat with Mg2+, K0.5 Mg2+ 0.13 mM) of 1.61 h⁻¹, an activity ([1]; kcat with Mn2+, K0.5 Mn2+ 19.9 mM) of 0.56 h⁻¹ and an activity ([2]; kcat with Mg2+, K0.5 Mg2+ 6.3 mM) of 1.6 h⁻¹. The activity ([2]; kcat with Mn2+, K0.5 Mn2+ 0.02 mM) was 0.57 h⁻¹, the activity (pmol dGTP/ul VLP per 60 min) [3] was 5 and the activity (pmol dGTP/ug RT per 60 min) [4] was 205.
